In general, EC50 refers to the concentration needed to bring the measured effect to its halfway point. Read a high EC50 as a less potent agent.

Data on eleven molecules can be found in US20260028422A1 (CONCEPT TO MEDICINE BIOTECH, published 2026).

Test [1] has as its target T1, human MerTK expressed on cells (human, UniProt Q12866 21-999).
T1 construct: whole, on cells; also called CHO-K1-hMerTK; CHO-K1-MerTK
T1 sequence (looked up): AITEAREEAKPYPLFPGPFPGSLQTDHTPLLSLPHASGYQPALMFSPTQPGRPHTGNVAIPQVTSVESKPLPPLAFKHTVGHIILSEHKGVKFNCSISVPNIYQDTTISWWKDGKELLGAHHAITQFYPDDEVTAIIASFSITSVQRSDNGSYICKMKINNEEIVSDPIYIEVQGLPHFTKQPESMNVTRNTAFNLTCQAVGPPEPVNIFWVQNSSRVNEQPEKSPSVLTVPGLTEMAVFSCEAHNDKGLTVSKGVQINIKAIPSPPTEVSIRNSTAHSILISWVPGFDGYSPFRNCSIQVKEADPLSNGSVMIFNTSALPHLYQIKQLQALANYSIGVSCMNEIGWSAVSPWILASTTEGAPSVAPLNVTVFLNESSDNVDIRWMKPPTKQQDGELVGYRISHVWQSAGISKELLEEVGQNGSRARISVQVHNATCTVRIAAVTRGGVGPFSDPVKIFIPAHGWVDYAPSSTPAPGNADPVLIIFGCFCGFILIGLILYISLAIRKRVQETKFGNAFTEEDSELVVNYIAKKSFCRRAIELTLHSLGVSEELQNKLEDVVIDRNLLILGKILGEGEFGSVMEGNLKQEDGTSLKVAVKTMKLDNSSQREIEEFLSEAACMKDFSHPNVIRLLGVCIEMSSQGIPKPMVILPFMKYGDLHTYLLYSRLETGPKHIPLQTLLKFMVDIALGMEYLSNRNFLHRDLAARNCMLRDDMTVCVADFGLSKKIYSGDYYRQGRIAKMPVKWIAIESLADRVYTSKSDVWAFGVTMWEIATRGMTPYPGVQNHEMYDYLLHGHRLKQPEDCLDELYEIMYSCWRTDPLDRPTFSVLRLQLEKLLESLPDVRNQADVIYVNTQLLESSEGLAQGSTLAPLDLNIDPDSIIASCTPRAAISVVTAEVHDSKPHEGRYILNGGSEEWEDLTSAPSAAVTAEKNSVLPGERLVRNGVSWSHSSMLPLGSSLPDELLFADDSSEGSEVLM
Kind of test: FACS on SK-MEL-5 cells expressing human MerTK, geometric mean. Here is the method: To evaluate the binding properties on MerTK expressed on cells, the chimeric monoclonal antibodies were analyzed for their binding to human melanoma cell line SK-MEL-5 expressing MerTK by FACS analysis. Briefly, SK-MEL-5 cells were firstly incubated with 5-fold serially diluted chimeric mAbs starting at 20 nM at 4° C. for 30 mins. After washing by FACS buffer, the PE conjugated anti-human IgG secondary antibody was incubated with the cell-antibody complex in the wells at 4° C. for 30 mins to detect the antibodies those bound to the cells. The MFI of PE was evaluated by QuantAnalyzer 16.

In the next test the target is T2, cyno MerTK-his protein (cynomolgus, UniProt A0A2K5V1H9 27-505).
T2 construct: also called cyno MerTK protein; Cynomolgus
T2 sequence: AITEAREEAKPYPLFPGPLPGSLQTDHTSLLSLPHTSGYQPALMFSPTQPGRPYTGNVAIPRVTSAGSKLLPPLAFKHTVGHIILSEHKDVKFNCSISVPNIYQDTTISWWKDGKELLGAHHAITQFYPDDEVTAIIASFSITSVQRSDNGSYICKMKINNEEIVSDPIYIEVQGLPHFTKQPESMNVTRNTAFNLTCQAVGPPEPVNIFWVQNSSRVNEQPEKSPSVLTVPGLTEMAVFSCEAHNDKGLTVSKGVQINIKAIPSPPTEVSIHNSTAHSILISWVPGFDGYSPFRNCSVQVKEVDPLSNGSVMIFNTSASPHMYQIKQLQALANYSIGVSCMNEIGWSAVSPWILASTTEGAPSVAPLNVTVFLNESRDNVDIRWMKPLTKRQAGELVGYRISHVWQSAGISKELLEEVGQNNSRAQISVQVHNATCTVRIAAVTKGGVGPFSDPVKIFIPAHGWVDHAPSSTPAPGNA
Kind of test: ELISA, coated cyno MerTK-his. Here is the method: (§1) To evaluate the binding activity, the chimeric mAbs were subjected to ELISA test. Briefly, 96-well plates were coated with human or cyno MerTK-his protein at 2 μg/mL in PBS, 100 μL/well at 4° C. overnight, then blocked with 150 μL/well of 1% BSA. Five-fold dilutions of MerTK antibodies starting from 20 nM were added to each well and incubated for 1 hour at room temperature. The plates were washed with PBS/Tween-20 and then incubated with goat anti-human IgG Fe antibody conjugated with Horse Radish Peroxidase (HRP) for 30 minutes (mins) at room temperature. After washing, the plates were developed with TMB substrate and subsequent stop solution was added to complete the reaction. The signal from each well was read by spectrophotometer at OD 450 nm.

In a further test the target is T3, human MerTK-his protein (human, UniProt Q12866 21-505).
T3 construct: extracellular domain; also called hMerTK-His; human MerTK protein
T3 sequence (looked up): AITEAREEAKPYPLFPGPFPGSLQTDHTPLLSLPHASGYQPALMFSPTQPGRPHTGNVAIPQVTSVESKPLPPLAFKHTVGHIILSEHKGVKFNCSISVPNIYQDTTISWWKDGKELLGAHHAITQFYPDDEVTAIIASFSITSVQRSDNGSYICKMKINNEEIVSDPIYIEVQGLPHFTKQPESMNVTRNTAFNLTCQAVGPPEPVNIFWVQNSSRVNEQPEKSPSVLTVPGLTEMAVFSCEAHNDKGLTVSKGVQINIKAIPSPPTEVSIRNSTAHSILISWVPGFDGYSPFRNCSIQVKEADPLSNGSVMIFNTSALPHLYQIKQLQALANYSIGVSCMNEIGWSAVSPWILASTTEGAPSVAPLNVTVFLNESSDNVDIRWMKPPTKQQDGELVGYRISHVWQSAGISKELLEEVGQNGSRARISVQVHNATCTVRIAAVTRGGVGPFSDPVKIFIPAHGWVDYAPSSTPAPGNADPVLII
Kind of test: ELISA, coated human MerTK-his. As for the experimental part:
as §1

B1: 254B4D9 chimeric monoclonal antibody (antibody, V domains shown)
VH: QIQLVQSGPELKKPGETVKISCKASGYTFTAYGMSWVKQAPGKGLQWMGWINTYSGVPTYTDDFKGRFAFSLEASASTAFLQINNLKNEDTSTYFCARRAAVVAKYWYFDVWGTGTTVTVSS
VL: DIQMTQSPSSLFASLGGKVIITCKSSQDINKRISWYQHKPGKGPRLLIHSTSSLQPGIPLRFSGSGSGRDYSFSISNLEPEDIATYFCLQYDNLLTFGAGTKLELK
For B1, the EC50 in test [1] amounted to 0.18 nM; in the test with cyno MerTK-his protein, 0.056 nM; in the test with human MerTK-his protein it was 0.047 nM. In test [1], this molecule yielded a Top of 4840 Geometric Mean.

B2: 10F7D9 chimeric monoclonal antibody (antibody, V domains shown)
VH: QIQLVQSGPELKKPGETVKISCKASGYTFTNYGMNWVKQAPGKGLKWMGWINTYTGEPTYADDFKGRFAFSLETSASTAYLQINNLKNEDLATYFCATYGHYAWFAYWGQGTLVTVSA
VL: QIVLSQSPAILSASPGEKVTMTCRASSSVSYMHWYQQKSGSSPKPWIYATSNLASGVPARFSGSGSGTSYSLTISRVEAEDAATYFCQQWGTKPLTFGAGTKLELK
As to B2, the EC50 in test [1] came out at 0.025 nM; with cyno MerTK-his protein, 0.024 nM; in the test with human MerTK-his protein it was 0.027 nM. In addition, the Top in test [1] was found to be 7070 Geometric Mean.

B3: 85H8D5 chimeric monoclonal antibody (antibody, V domains shown)
VH: QIQLVQSGPELKKPGETVKISCMASGYTFTTHGVTWVKQAPGQGLQRMGWINTYSGVPTYADDFKGRFVFSLETSANTAHLQINNLKNEDTATYFCARTNNYRYFDVWGTGTTVTVSS
VL: QIVLSQSPAILSSSPGEKVTMTCRASSSVSYMHWYQQKPGSSPKPWIYATSNLASGVPARFSGSGSGTSYFLTISRVEAEDAATYYCQQWNTDPPTFGGGTKLEIK
For B3, the EC50 in test [1] came out at 0.022 nM; with cyno MerTK-his protein it was 0.024 nM; in the test with human MerTK-his protein, 0.025 nM. Further, the Top in test [1] was found to be 6860 Geometric Mean.

B4: h13B4.v16 benchmark antibody (antibody, V domains shown)
VH: EVQLVESGEGLVQPGGSLRLSCAASGFSLSSYAMGWVRQAPGKGLEYVGIINSYGNTYYANWAKGRFTISRDNSKNTVYLQMGSLRAEDMAVYYCARDPGVSSNLWGRGTLVTVSS
VL: DIQMTQSPSTLSASVGDRVTITCQASQNIYSGLAWYQQKPGKAPKLLIYGASKLASGVPSRFSGSGSGTEFTLTISSLQPDDFATYYCQATYYSSNSVAFGGGTKVEIK
In test [1], B4 yielded an EC50 of 0.092 nM and a Top of 4520 Geometric Mean.

B5: 276C2D1 chimeric monoclonal antibody (antibody, V domains shown)
VH: QVQLQQSGPELVKPGASVKLSCKASGYTFTSYDINWVKQRPGLGLEWIGWIYPRDGYTKYNEKFKGKATLAVDTSSSTAYMELHSLTSEDSAVYFCARGYYSNLYYFDYWGQGTTLTVSS
VL: EVVLTQSPPTMAASPGEKITITCSASSSISSNYLHWYQQKPGFSPKLLIYRTSNLASGVPARFSGSGSGTSYSLTIGTMEAEDVATYYCQQGRSIPLTFGAGTKLELK
Consider B5, for which the EC50 with cyno MerTK-his protein is 0.02 nM; with human MerTK-his protein, 0.019 nM.

B6: 280C6A3 chimeric monoclonal antibody (antibody, V domains shown)
VH: QVQLQQSGPELVKPGASVKLSCKASGYSFTTYDINWVKQRPGQGLEWIGWIYPRDGSTKYNEKFKGKATLTLDTSSNTAYMGLHSLTSEDSAVYFCARGYYDNLYYFDYWGQGTTLTVSS
VL: EIVLTQSPTTMAASPGEKITITCSASSSVSSNYLHWYQQKPGFSPKLLIYRTSNLASGVPARFSGSGSGTSYSLTIGTMEAEDVATYYCQQGRIVPLTFGAGTKLELK
For the molecule B6, the EC50 is 0.014 nM with cyno MerTK-his protein and 0.012 nM with human MerTK-his protein.

B7: 300A5A3 chimeric monoclonal antibody (antibody, V domains shown)
VH: QVQLQQSGPELVKPGASVKLSCKASGYTFTTYDINWVKQRPGLGLEWIGWIYPRDGYTKYNEKFKGKATLAVDTSSSTASMELHSLTSEDSAVYFCARGYYDNLYYFDNWGPGTTLTVSS
VL: ENVLTQSPTTVAASPGEKITITCSASSIISSNYLHWYQQKPGFSPKLLIYRTSNLASGVPARFSGSGSGTSYSLTIGTMEAEDAATYYCQQGRSVPLTFGAGTKLELK
With B7, the EC50 with cyno MerTK-his protein turned out to be 0.026 nM; with human MerTK-his protein, 0.024 nM.

B8: 265F11B5 chimeric monoclonal antibody (antibody, V domains shown)
VH: QVQLQQSGPELVKPGASVRLSCKASGYTFTTYDINWVKQRPGLGLEWIGWIYPRDGYTKYNEKFKGRATLAVDTSSSTAYMELHSLTSEDSAVYFCTRGYYDNLYYFDYWGQGTTLTVSS
VL: EIVLTQSPTTVAASPGEKITITCSASSIISSNYFHWYQQRPGFSPKLLIYRTSNLASGVPARFSGSGSGTSYSLTIGTMEAEDVATYYCQQGRSVPLTFGAGTKLELK
B8: the EC50 with cyno MerTK-his protein amounted to 0.017 nM; with human MerTK-his protein, 0.0097 nM.

B9: 293C2B7 chimeric monoclonal antibody (antibody, V domains shown)
VH: QVQLQQSGPELVKPGASVKLSCKASGYTFTSYDINWVKQRPGQGLEWIGWIYPRDGYTKYKEKFKGKATLTVDTSSSTAYMELHSLTSEDSAVYFCARGFYSNLYYFDYWGQGTTLTVSS
VL: EIVLTQSPTTMATSPGEKITITCSASSSISSNYLHWYQQKPGFSPKLLIYRTSNLASGVPDRFSGSGSGTSYSLTIGTMEAEDVATYYCQQGRSIPLTFGAGTKLELK
With B9, the values for the EC50 in the test with cyno MerTK-his protein and in the test with human MerTK-his protein were 0.02 nM and 0.017 nM, respectively.

B10: 247E5A8 chimeric monoclonal antibody (antibody, V domains shown)
VH: DVQLQESGPGLVKPSQSLSLTCSVTGYSITGGYYWTWIRQFPGNKLEWMGYISYDGDNNYNPSLKNRISITRDTSKNQFFLNLNSVTTEDTATYYCAREGGRLRTMDYWGQGTSVTVSS
VL: QIVLTQSPAIMSASPGEKVTITCRASSSVNYMHWFQQKPGTSPKLWIYTTSNLASGVPARFSGSGSGTSYSLTISRMEAEDAATYYCQQRSSYPFTFGSGTKLEIK
In the case of B10, the EC50 in test [1] was 0.094 nM; with cyno MerTK-his protein it was 0.037 nM; with human MerTK-his protein it was 0.032 nM. Moreover, the Top in test [1] came out at 7160 Geometric Mean.

B11: 216G3D6 chimeric monoclonal antibody (antibody, V domains shown)
VH: QVTLKESGPGILQPSQTLSLTCSFSGFSLSTSGMGVGWIRQPSGKGLEWLAHIWWDDDKHCNPALKSRLTISKDTSSNQVFLKIASLDTADTATYYCTQMTMTREFAYWGQGTLVTVSA
VL: DIQMTQTISSLSASLGDRVTISCSAGQGISNYLNWYQQKPDGTVKLLIYYTSRLHSGVPSRFSGSGSGTDFSLTISNLEPEDIATYFCQQYSKFPYTFGGGTKLEIK
As to B11, the values for the EC50 (in test [1]; in the test with cyno MerTK-his protein; in the test with human MerTK-his protein) were 0.17 nM, 0.047 nM and 0.046 nM, respectively. Further, the Top in test [1] came out at 8270 Geometric Mean.
